Source: patent US12351610B2, “Interferon regulatory factor 5 inhibitors and uses thereof” (THE FEINSTEIN INSTITUTES FOR MEDICAL RESEARCH, priority 2019, dated 2025)
Entries after “also recorded” stand apart in the source; their conditions may differ.

How the values were obtained:
[1] = target: T1, human full-length recombinant IRF5 variant 5 (isoform V5) (Homo sapiens, UniProt Q13568); assay: Surface plasmon resonance (SPR) binding of peptides to immobilized full-length recombinant IRF5; conditions: peptides 1 μM, IRF5 immobilized on chip, 25° C.
T1 construct: Full-length recombinant IRF5 protein (ab173024, Abcam) was immobilized onto a CMS series chip; purchased Abcam ab173024
T1 sequence (Q13568 1-514 isoform Q13568-2): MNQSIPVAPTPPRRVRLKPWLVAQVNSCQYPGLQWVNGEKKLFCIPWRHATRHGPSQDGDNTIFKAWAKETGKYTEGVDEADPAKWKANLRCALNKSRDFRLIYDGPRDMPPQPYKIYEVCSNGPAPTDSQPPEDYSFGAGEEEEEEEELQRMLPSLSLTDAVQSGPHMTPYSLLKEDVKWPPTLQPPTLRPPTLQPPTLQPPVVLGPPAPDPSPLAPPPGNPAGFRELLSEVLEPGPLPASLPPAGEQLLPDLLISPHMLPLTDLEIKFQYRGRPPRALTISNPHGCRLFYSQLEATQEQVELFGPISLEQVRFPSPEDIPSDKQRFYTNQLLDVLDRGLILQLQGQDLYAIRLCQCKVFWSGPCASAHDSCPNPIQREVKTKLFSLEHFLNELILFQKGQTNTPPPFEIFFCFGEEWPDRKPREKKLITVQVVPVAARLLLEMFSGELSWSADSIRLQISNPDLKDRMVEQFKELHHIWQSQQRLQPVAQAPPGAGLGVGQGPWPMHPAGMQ
Method: Surface Plasmon Resonance (SPR) Analysis. The Biacore T200 (GE Healthcare, UK) was used for real-time binding interaction studies. Full-length recombinant IRF5 protein (ab173024, Abcam) was immobilized onto a CMS series chip (GE Healthcare) by diluting to a concentration of 20 μg/mL in 10 mM acetate buffer (pH=5.0). A 1:1 mixture of N-hyrdoxysuccinimide and N-ethyl-N-(dimethyaminopropyl)carbodiimide was used to activate 2 flow-cells of the CMS chip. […] The sample flow-cell was injected with the diluted IRF5 at a flow rate of 10 μL/min by manual injection. The IRF5 injection was stopped when the SPR reached ˜490 RU. For binding of peptides to IRF5, the analytes (peptides) were diluted to 1 μM in 1×PBS+0.05% Tween20 buffer, filtered (0.22 μm) and injected over the IRF5 immobilized chip at a flow rate of 30 μL/min for 60 s at 25° C. with a dissociation time set for 1 min. Binding experiments were conducted in 1×PBS+0.05% Tween20 as the running buffer; at least 3 independent experiments were performed.
Peptides (1 μM) were tested for their ability to directly interact with human full-length recombinant IRF5 variant 5 (isoform V5) by surface plasmon resonance (SPR) analysis. DWEYS (SEQ ID NO:23) peptide served as a non-targeted control and CPP1 (SEQ ID NO:4) as a control for the cell permeable sequence. […] A shared similarity between N5-1 (SEQ ID NO:20) and N5-2 (SEQ ID NO:17) is their relatively stronger positive charge, as compared to the others (Table 1).
Human IRF5 contains two nuclear localization signals (NLS), one in the N-terminus and one in the C-terminus (27). N5-1 (SEQ ID NO:20) corresponds to the N-terminal NLS (PRRVRLK) (SEQ ID NO:24). To test whether any NLS is capable of binding to IRF5, we generated C5-2 (SEQ ID NO:22) that corresponds to the C-terminal NLS of IRF5 (PREKKLI) (SEQ ID NO:25) and examined binding by SPR.

[2] = test system: IRF5 nuclear translocation in monocytes (Mo) of PBMC from healthy donors; assay: R848-induced IRF5 nuclear translocation in PBMC monocytes (CD14+), imaging flow cytometry; type: cell-based, human; conditions: 10 μM peptide pre-incubation 1 h, then 500 ng/mL R848 for 2 h
Method: (§1) Imaging Flow Cytometry. Imaging flow was performed as previously described on the Amnis Imagestream (19). Briefly, PBMCs from healthy donors were isolated and treated with inhibitor for 1 h, subsequently stimulated with R848 (500 ng/mL) or 2% SLE serum for 2 h, followed by staining for CD19 and CD14. PBMC were then fixed overnight in 1% paraformaldehyde and then permeabilized (19). Permeabilized cells were blocked in 5% BSA solution and stained for intracellular IRF5 (Abcam Catalog #: ab193245) or phospho(pSer462)IRF5 and FITC-conjugated secondary antibody (Abcam Catalog #: ab6896). Prior to acquisition, DRAQS dye was added at a 1:50 dilution. PBMC from SLE patients were only surface-stained and permeabilzed for intracellular IRF5 and DRAQS staining. Murine PBMC were stained similarly for intracellular IRF5 (Abcam Catolog #: 181553) (58) and APC-conjugated secondary antibody (BioLegend). Images were acquired on the ImageStream using the 40× objective. Nuclear translocation was quantified in the Amnis IDEAS software suite. Briefly, cells were first filtered through the brightfield area vs. brightfield aspect ratio gate to exclude non-viable and doublet events. Following which a similar gate of the DRAQS nuclear channel was used. This added an extra measure of stringency for cell viability. Images were gated on either CD14^+IRF5^+, CD19^+IRF5^+, or CD123^+BDCA2^+IRF5^+ events, followed by gating on images with a Gradient RMS of greater than 20 on the DRAQS channel. This was done to select images with a high level of clarity. Finally, IRF5 nuclear translocation was determined through use of the similarity score feature contrasting IRF5 staining with DRAQS staining. A similarity score≥2 was considered a translocation event.
Peptide mimetics inhibit TLR7-induced IRF5 nuclear translocation. We next sought to determine whether in vitro binding data would translate into IRF5 cellular inhibition. IRF5 is a key downstream mediator of TLR7-induced cytokine expression and TLR7 signaling has been implicated in SLE pathogenesis (2,44-47). We examined the ability of IRF5 peptide mimetics to inhibit IRF5 nuclear translocation following stimulation of PBMC with R848. […] For the initial screening, isolated PBMC from healthy donors were pre-incubated in the presence of mock (PBS), or 10 μM CPP1 (SEQ ID NO:4), N5-1 (SEQ ID NO:20), N5-2 (SEQ ID NO:17), N5-3 (SEQ ID NO:18) or C5-2 (SEQ ID NO:22) inhibitor for 1 h followed by stimulation with 500 ng/mL of R848 for 2 h. Cells were surface-stained with anti-CD14 (monocytes or Mo) and anti-CD19 (B cells) antibodies, then permeabilized and stained for intracellular IRF5 and DRAQ5. As expected, R848 induced significant IRF5 nuclear translocation in mock-incubated Mo (2) and B cells.

[3] = test system: IRF5 nuclear translocation in B cells of PBMC from healthy donors; assay: R848-induced IRF5 nuclear translocation in PBMC B cells (CD19+), imaging flow cytometry; type: cell-based, human; conditions: 10 μM peptide pre-incubation 1 h, then 500 ng/mL R848 for 2 h
Method: as §1, with “This added an extra measure of stringency for cell viability. Images were gated on either CD14^+IRF5^+, CD19^+IRF5^+, or CD123^+BDCA2^+IRF5^+ events, followed by gating on images with a Gradient RMS of greater than 20 on the DRAQS channel. This was done to select images with a high level of clarity.” left out, “A similarity score≥2 was considered a translocation event.” left out

Row | Substance | binding affinity for IRF5 [1] | effect on R848-induced IRF5 nuclear translocation in Mo [2] | effect on R848-induced IRF5 nuclear translocation in B cells [3]
1 | DRQIKIWFQNRRMKWKK (listed as Drosophila antennapedia) [CPP1, reference compound] | minimal binding affinity | no significant effect | no significant effect
2 | DRQIKIWFQNRRMKWKKEGVDEAD (cell penetrating and targeting sequence) [Peptide N5-5] | no affinity for IRF5 | – | –
3 | DRQIKIWFQNRRMKWKKGPRDMPP (cell penetrating and targeting sequence) [Peptide N5-4] | N5-3 (SEQ ID NO:18)>N5-4 (SEQ ID NO:19)>CPP1 (SEQ ID NO:4) | – | –
4 | DRQIKIWFQNRRMKWKKKSRDFRL (cell penetrating and targeting sequence) [Peptide N5-3] | binding to a slightly lesser extent; also recorded: directly bind to the full-length inactive IRF5 monomer | significant reduction | –
5 | DRQIKIWFQNRRMKWKKPRRVRLK (cell penetrating and targeting sequence) [Peptide N5-1] | strongest binding affinity for IRF5; also recorded: directly bind to the full-length inactive IRF5 monomer | significant reduction | –
6 | DRQIKIWFQNRRMKWKKRHATRHG (cell penetrating and targeting sequence) [Peptide N5-2] | strongest binding affinity for IRF5; also recorded: directly bind to the full-length inactive IRF5 monomer | significant reduction | –
7 | DWEYS (listed as Homo sapiens) [peptide that served as a non-targeted control, reference compound] | no affinity for IRF5 | – | –
